# From US20060252724A1 (Pfizer, published 2006)
# B1: retrovirally produced BMP-3 (from pBABE-BMP3, full-length human BMP-3 cDNA, secreted by infected W-20-17 cells) (ligand)
# chain: QWIEPRNCARRYLKVDFADIGWSEWIISPKSFDAYYCSGACQFPMPKSLKPSNHATIQSIVRAVGVVPGIPEPCCVPEKMSSLSILFFDENKNVVLKVYPNMTVESCACR
# notes: Expressed from the full-length human cDNA; The secreted, processed form has a most abundant monomer of about 28 kD, with glycosylated or alternatively processed forms; also called vBMP3; BMP-3 CM
# Target: T1, rhBMP-2 (recombinant human bone morphogenetic protein-2) (human, UniProt P12643 283-396)
# T1 construct: Control protein on the Western blot; Analysed on reducing SDS-PAGE
# Assay: co-immunoprecipitation
# T1 sequence (P12643 283-396 limits assumed): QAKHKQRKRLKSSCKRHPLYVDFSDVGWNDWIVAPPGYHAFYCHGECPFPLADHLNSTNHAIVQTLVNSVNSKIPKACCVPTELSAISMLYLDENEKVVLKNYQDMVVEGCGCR
binder,measurement,value
B1,binding result,no binding
